# In paper PMC314469, “Protein Interaction Networks by Proteome Peptide Scanning” (PLoS Biology, 2004):
# Biological target: T1, amphyphisin SH3 (AMPH_HUMAN), P49418
# T1 chain: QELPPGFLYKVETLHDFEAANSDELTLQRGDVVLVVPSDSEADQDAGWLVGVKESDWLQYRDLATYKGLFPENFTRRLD
# Test: SPOT array
row,"normalised SPOT signal, Boehringer light units (BLU); mean over the file's lines of this peptide",Binder
1,28,PAAAPRRPFSWEDV [O95696 687-700]
2,379,PAALLYRPVRQYVY [Q9NZB2 597-610]
3,4020,NSSRPGRPPKRSLG [Q96NX9 174-188]
4,23.4,NQSVPKRPAGSVQN [P00533 1094-1107]
5,4.9,PAALLRRPGLGRLV [P30049 3-16]
6,150,NNRVLRRPSERGRA [Q9Y3S6 986-999]
7,48.6,NTAKPTRPPSESSS [Q9Y2E7 460-474]
8,30.4,ARKQPRRPHFLLEP [O60289 975-988]
9,67.5,NRWGPGRPPFRKAQ [Q9Y2K9 813-827]
10,4650,NVLVPSRPPRNPYD [BAC03435 232-246]
11,125,NSDTPPRPDRLPLD [Q05209 516-529]
12,678,ARLPPPRPQRPAET [Q9NQE0 226-239]
13,43.8,NSFSPQKPPGHSSR [Q9BX63 202-216]
14,37.1,NSSHIKRPMNAFMV [Q9UN79 402-415]
15,362,NSAGISRPSRVSDA [P54296 461-474]
16,19,NYKNIKRPPGDIMF [Q9Y310 97-110]

row,"normalised SPOT signal, Boehringer light units (BLU); mean over the file's lines of this peptide",Binder
1,2350,NVSSFRRPRRSSDK [Q9P2Y5 686-699]
2,1620,NSHLLPRPLRHLAS [P47901 342-355]
3,24.3,NSMGIKRPAPQPAS [O94830 308-321]
4,-0,NQKQLKRPAQGKRQ [Q9H6S7 54-67]
5,43,ARLYLRRPAADGAE [Q14181 572-585]
6,2460,PAAPPKKPPRPGAP [Q05397 868-882]
7,194,NTFHILRPTKAPGF [Q9Y2L0 734-747]
8,45.8,NNPLIGRPNKVTTV [O60306 1318-1331]
9,7.2,NSSSFKRPDGEMNI [O00463 504-517]
10,497,NSPTLERPGRKRKW [Q9H247 116-129]
11,64.4,PAAPPKRPAVASAR [P27816 749-762]
12,318,NPALFPRPERYNPQ [P15538 413-426]
13,78.8,NSRNPRRPPPSSVN [Q96T16 198-211]
14,37.6,NVPIPERPPPVPPP [Q96BJ8 361-375]
15,3320,PAAPPRRPPQSASS [Q02080 268-282]

# Biological target: endophilin SH3 (SH3G2_HUMAN), Q99962
# Test: SPOT array
row,"normalised SPOT signal, Boehringer light units (BLU); mean over the file's lines of this peptide",Binder
1,50.4,PAAAPRRPFSWEDV [O95696 687-700]
2,430,PAALLYRPVRQYVY [Q9NZB2 597-610]
3,18800,NSSRPGRPPKRSLG [Q96NX9 174-188]
4,26.5,NQSVPKRPAGSVQN [P00533 1094-1107]
5,81.5,PAALLRRPGLGRLV [P30049 3-16]
6,652,NNRVLRRPSERGRA [Q9Y3S6 986-999]
7,141,NTAKPTRPPSESSS [Q9Y2E7 460-474]
8,31.6,ARKQPRRPHFLLEP [O60289 975-988]
9,6400,NRWGPGRPPFRKAQ [Q9Y2K9 813-827]
10,2920,NVLVPSRPPRNPYD [BAC03435 232-246]
11,0,NSDTPPRPDRLPLD [Q05209 516-529]
12,3150,ARLPPPRPQRPAET [Q9NQE0 226-239]
13,505,NSFSPQKPPGHSSR [Q9BX63 202-216]
14,176,NSSHIKRPMNAFMV [Q9UN79 402-415]
15,95.7,NSAGISRPSRVSDA [P54296 461-474]
16,36,NYKNIKRPPGDIMF [Q9Y310 97-110]

row,"normalised SPOT signal, Boehringer light units (BLU); mean over the file's lines of this peptide",Binder
1,105,NVSSFRRPRRSSDK [Q9P2Y5 686-699]
2,2290,NSHLLPRPLRHLAS [P47901 342-355]
3,165,NSMGIKRPAPQPAS [O94830 308-321]
4,68.6,NQKQLKRPAQGKRQ [Q9H6S7 54-67]
5,91.8,ARLYLRRPAADGAE [Q14181 572-585]
6,792,PAAPPKKPPRPGAP [Q05397 868-882]
7,256,NTFHILRPTKAPGF [Q9Y2L0 734-747]
8,267,NNPLIGRPNKVTTV [O60306 1318-1331]
9,39.5,NSSSFKRPDGEMNI [O00463 504-517]
10,81.5,NSPTLERPGRKRKW [Q9H247 116-129]
11,2200,PAAPPKRPAVASAR [P27816 749-762]
12,102,NPALFPRPERYNPQ [P15538 413-426]
13,464,NSRNPRRPPPSSVN [Q96T16 198-211]
14,84,NVPIPERPPPVPPP [Q96BJ8 361-375]
15,1450,PAAPPRRPPQSASS [Q02080 268-282]
